Measured values published in patent publication US20240024383A1, “ENGINEERED PROBIOTIC COMPOSITIONS AND USES THEREOF” (priority 2020, published 2024).
“Also recorded” adds a separate entry of the source.

How the values were obtained:
C. difficile = test: Mouse model for parenteral ampicillin-induced disruption of colonization resistance against C. difficile; type: in vivo, C57BL/6 mice; conditions: single daily dose, 200 mg/kg intraperitoneal, 3 days, 5×10^3 spores 24 hours after last dose
Experimental: FIGS. 7A-7C. Mouse model for parenteral ampicillin-induced dysbiosis and the disruption of colonization resistance against C. difficile. FIG. 7A. A 3-day intraperitoneal ampicillin administration regimen is evaluated for its effects in abolishing colonization resistance against 5×10^3 spores of C. difficile at 24 hours after the last ampicillin dose. C. difficile density in feces is evaluated 24 hours after the infection. FIG. 7B. […] FIG. 7C. Dose-dependency of single daily intraperitoneal ampicillin injections in the disruption of colonization resistance against C. difficile.
L. lactis spTEM1 protects the diversity and composition of gut the microbiota in an ampicillin-induced dysbiosis murine model. To test the efficacy of L. lactis spTEM1 in preventing ampicillin-induced dysbiosis, a mouse model was developed that utilizes susceptibility to C. difficile infection as an endpoint indication of gut dysbiosis. […] Based on this antibiotic regimen, the inventors devised a probiotic intervention aimed at populating the mouse gut with L. lactis spTEM1 while ampicillin circulates in the body (FIG. 3A). […]
C. difficile infection. […] The number of colony forming units (CFU) was counted using TCCFA plates supplemented with 50 μg/mL Erythromycin at 37° C. under anaerobic conditions, as previously reported.^26

E. coli = test: Cell density-dependent survival/growth on ampicillin, E. coli expressing spTEM1 elements; type: cell-based, Escherichia coli
Description: FIGS. 2A-2B. […] FIG. 2A. Cell density-dependent growth on ampicillin. β-lactamases in the periplasm of Gram-negative bacteria i.e. E. coli, confer selective advantage to single-cells. Survival to ampicillin is an emergent property of the of the L. lactis spTEM1 population and not of single cells. Diffusion from the cell surface precludes protection to the producer cell when the population density is low. FIG. 2B. Estimation of the ampicillin survival density threshold in prototypical Gram-negative and Gram-positive strains expressing elements of the spTEM1 system.
The spTEM1 β-lactamase system is not amenable to HGT. Stable acquisition of a new genetic trait by HGT requires both the physical mobilization of DNA into the recipient cell and that the expression of the newly obtained genetic material provides enough selective advantage to outcompete the rest of the population. While encoding the spTEM1 β-lactamase system in separate genetic loci reduces the likelihood of transfer to a single recipient cell, the scenario of simultaneous acquisition of the two β-lactamase fragments cannot be completely ruled out. The inventors investigated whether stable acquisition of the spTEM1 β-lactamase genes to a Gram-negative bacterium confers a fitness advantage in the presence of ampicillin.
Bacterial strains. […]

[1] = target: T1, β lactamase fragment (BLF) 2 of TEM1 β-lactamase, without SpyCatcher
T1 chain: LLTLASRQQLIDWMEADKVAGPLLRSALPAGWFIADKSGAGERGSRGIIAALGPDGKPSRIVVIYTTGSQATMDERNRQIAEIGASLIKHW

[2] = Nitrocefin hydrolysis assay for β-lactamase activity in culture supernatants; type: biochemical; conditions: 0.1 mM nitrocefin, absorbance at 486 nm
Description: A L. lactis strain was generated that is able to inactivate β-lactam antibiotics in its surroundings by secreting a split enzyme that is encoded in a two-gene biosynthesis pathway. By splitting β-lactam degradation into a genetically unlinked trait the selective advantage conferred upon a single locus was removed, thereby limiting the possible spread of the engineered trait in the population through a single HGT event. To achieve this, a heterodimeric version of the TEM1 β-lactamase (spTEM1) that regains its activity when reconstituted in the extracellular environment was generated.
β-lactamase assay. Nitrocefin (BioVision) was dissolved in DMSO to make a 1 mM stock. It was added to samples bacterial culture supernatant in a clear-bottom 96-well plate to a final concentration of 0.1 mM. The plate was placed in a spectrophotometer SpectraMaX™ M5 (Molecular Devices) to read absorbance at 486 nm over time.

CC1(C)S[C@@H]2[C@H](NC(=O)[C@H](N)c3ccccc3)C(=O)N2[C@H]1C(=O)O [ampicillin]
disruption of colonization resistance against C. difficile (C. difficile): sufficient to abrogate colonization resistance; also recorded: enough to sensitize the mouse gut to robust C. difficile colonization

B1: TEM1 β-lactamase: Intact TEM1 β-lactamase with periplasmic localization in E. coli (protein, UniProt P62593 24-286, looked up)
Beta-lactamase TEM: HPETLVKVKDAEDQLGARVGYIELDLNSGKILESFRPEERFPMMSTFKVLLCGAVLSRVDAGQEQLGRRIHYSQNDLVEYSPVTEKHLTDGMTVRELCSAAITMSDNTAANLLLTTIGGPKELTAFLHNMGDHVTRLDRWEPELNEAIPNDERDTTMPAAMATTLRKLLTGELLTLASRQQLIDWMEADKVAGPLLRSALPAGWFIADKSGAGERGSRGIIAALGPDGKPSRIVVIYTTGSQATMDERNRQIAEIGASLIKHW
growth in ampicillin as single colonies (E. coli): enables the growth in ampicillin as single colonies

B2: β lactamase fragment (BLF) 1 of TEM1 β-lactamase, without SpyTag (protein)
chain: MHPETLVKVKDAEDQLGARVGYIELDLNSGKILESFRPEERFPMMSTFKVLLCGAVLSRIDAGQEQLGRRIHYSQNDLVEYSPVTEKHLTDGMTVRELCSAAITMSDNTAANLLLTTIGGPKELTAFLHNMGDHVTRLDRWEPELNEAIPNDERDTTTPVAMATTLRKLLTG
β-lactamase activity in culture supernatants (nitrocefin) [1]: slow in reconstituting and show minimal β-lactamase activity

B3: ST-BLF-1: SpyTag fused to TEM1 β-lactamase fragment BLF1 with usp45 secretion signal (SEQ ID NO: 4) (protein)
chain: MKKKIISAILMSTVILSAAAPLSGVYAAHIVMVDAYKPTKGGGGSGGGGSMHPETLVKVKDAEDQLGARVGYIELDLNSGKILESFRPEERFPMMSTFKVLLCGAVLSRIDAGQEQLGRRIHYSQNDLVEYSPVTEKHLTDGMTVRELCSAAITMSDNTAANLLLTTIGGPKELTAFLHNMGDHVTRLDRWEPELNEAIPNDERDTTTPVAMATTLRKLLTG
β-lactamase activity (nitrocefin hydrolysis) [2]: do not display β-lactamase activity
